The nature of this data set: label from the status in PepcDB records.
Turning to “MSADHDEGLRRAQRLHLSGDADGAERAYRALLDDAALGAPAAHWLGFLLMQQGRLDEALAWLERVVAADDGHAEWHFNLGLVRARLGRSEEAVFALREAARRDPSRYFYWTNLGAQLMRGGQDAEAEQALRRAASLDPHCPDAFYLLTEMLLRQGRHAEARRCNAQGVLAEPPGKMAPIAVGQALCELGRSEEARSLAQSWLLAQPGHPVARHMLAAFGGGDAPADGDDEYVGCAFDAAAASFDQDLSRLRYQGPSWTAACLAGLSLAPKSLSALDLGCGTGLIGEVLQPWASRLDGVDLSAGMLARAGAKGIYDSLEQAELRAFLRQTDRTYQLIACMDTLPYLGELDALFMLLAERMAPGGLLLFCTESLEDGEAGDGRLHHSGRYRHHSRYLDRLLAVGWDVLERARMPVRDEAGCPVWGDFVCARKVFAA”, the protein production result is listed as “failed”. The value for “GDGEEYTFWDPEYAGLQNGLKAVLPNAHNYITQFSANERRYIVYSTSSTQPGTYYFGDRDEKVLFPIAERYSQLSTEQLADTQYLSYEARDKLKIDAYLTVPKGFKAKHLPTIIFPHGGPISYDSNDFDYWAQFFANRGYAVFRMNFRGSAGYGYEFMKAGLKSWGLEMQNDVEDGTRYLINQGISDPQRICIVGASYGGYAALMGAAMTPDLYRCAVSVAGVTDVANLVRSSRRFTNYEVVKEQIGDDFNVLYERSPISKADKITIPVLLLHGDKDRVVKVQHSREMFDELKSRKKNVEYIELENGGHYLSNNDHRLTTFKALDKFLADNLK” was “failed”. With “SLATCIGEKIEDFKVGNLLGKGSFAGVYRAESIHTGLEVAIKMIDKKAMYKAGMVQRVQNEVKIHCQLKHPSILELYNYFEDSNYVYLVLEMCHNGEMNRYLKNRVKPFSENEARHFMHQIITGMLYLHSHGILHRDLTLSNLLLTRNMNIKIADFGLATQLKMPHEKHYTLCGTPNYISPEIATRSAHGLESDVWSLGCMFYTLLIGRPPFDTDTVKNTLNKVVLADYEMPSFLSIEAKDLIHQLLRRNPADRLSLSSVLDHPFMSRNSSTKSKDEG”, the protein production result is given as “not failed”. The value for “MALILRPPHGYSVRNRYWPGSGASNLPYLFEDFALDGDRRELRRGNSLIAVEPQVFDLLQYLIRNRERVVSKDDLVDAVWQGRIVSDATLASRVNAARSALQDNGEQQRLVRTFPRRGFRFVGTVHEEAGAEATAPVEPAKPGLGIPARPSIAVLPFVNLSGDPDQDYFADGMVEDIITGLSRIRWLFVIARNSSFTYKGRAVDMKQVGQELGVRYVLEGSVRKVGSRVRITGQLIDTEDGGHLWAERYDRELTDVFALQDEITISVVAAIEPNLRRAEIERVKRQRPDSLDAYDLFLRALPDVYTFMPQGAARGLPLLDQALAIEPSYALVHGFAAWAHQTLFIRGGMQAEHSGKASRHAHAAIEHGSGDAMALALAGFTIGLVEHDRKLADEAFSQALSLSASCAFVYAFGCVPVAYGGDATRAIDWGEQALRLNPLDAMNCVPQGMIGFGNFLAGRHEQAIAAGRRAVEMNPGFSILHGWLAAPLARLGRIEEAKAAGSRLMALDPHFTIGRWSAAVGLAPAIIDDVTEAMRLAGLPA” was “failed”; that for “MENGEAKQSVPLLTPYKMGRFNLSHRVVLAPLTRQRSYGNVPQPHAAIYYSQRTTPGGFLITEATGVSDTAQGYQDTPGIWTKEHVEAWKPIVDAVHAKGGIFFCQIWHVGRVSNSGFQPNGKAPISCSDKPLMPQIRSNGIDEALFTPPRRLGIEEIPGIVNDFRLAARNAMEAGFDGVEIHGANGYLIDQFMKDTVNDRTDEYGGSLQNRCKFPLEIVDAVAKEIGPDRVGIRLSPFADYMESGDTNPGALGLYMAESLNKYGILYCHVIEARMKTMGEVHACPHTLMPMRKAFKGTFISAGGFTREDGNEAVSKGRTDLVAYGRWFLANPDLPKRFQVDAPLNKYDRPTFYTSDPVVGYTDYPFLESTA” was “not failed”. The value for “FYTPSFITSYMCKESITPIVLDKFNAIYQWDCENLKALRGEIDRNFSNEKAKEYLNTLLTLRICDPAVGSGHFLVSALNEMVRVAYELGLIASLYRYDLKLENDEIIIHHTPTGEIFNYIKPDSENDPHHHIQKELFNLKKSIIENCLFGVDINPNSCEITKLRLWIELLKYSYYIFEKGKNTNALETLPNIDINIKCANSLISRFALKDKALLKSEKNKNLEYSIAEYKELVKIYKDPKILETLTHPIKDSNAVRKYAKERLYQELKQNPNKDFKKALNDRIEKIKKAFKLTLNPPPKELKFKKFLKEHLELYGKSILEEANYNGLELEALALEKQMANLFFDYRPYPKLDKSDKVVGLEHFNRYVLTSYKDLQDENERYANALEWRFEFPEVLDDEGDFSGFDCIIGNPPYIRQEHIKDLKPLLEKQYQDFYNSTADIYTYFFALAFHLLKEKGFSAFITSNKYTRAKYGAKLREWLLKKTTIVSYMELNALKVFESAAVDTSIIHFIKQTPSKESEFKYYEPTPNDKDDLKSTPHLLMKQNVLST” was “failed”.
